Test results reported in PMC9245612 (Proceedings of the National Academy of Sciences of the …, 2022).

Tests used:
[1] = target: the molecule itself; experiment: SEC
[2] = substrate: Nc1ncnc2c1ncn2[C@@H]1O[C@H](COP(=O)(O)OP(=O)(O)OP(=O)(O)O)[C@@H](O)[C@H]1O; experiment: purified protein; conditions: co-substrate NAD+, 37 °C

| Protein | stoichiometry N [1] | Km [2] [mM] |
| --- | --- | --- |
| human cytosolic NADK, full-length (enzyme, UniProt O95544 1-446, looked up) MEMEQEKMTMNKELSPDAAAYCCSACHGDETWSYNHPIRGRAKSRSLSASPALGSTKEFRRTRSLHGPCPVTTFGPKACVLQNPQTIMHIQDPASQRLTWNKSPKSVLVIKKMRDASLLQPFKELCTHLMEENMIVYVEKKVLEDPAIASDESFGAVKKKFCTFREDYDDISNQIDFIICLGGDGTLLYASSLFQGSVPPVMAFHLGSLGFLTPFSFENFQSQVTQVIEGNAAVVLRSRLKVRVVKELRGKKTAVHNGLGENGSQAAGLDMDVGKQAMQYQVLNEVVIDRGPSSYLSNVDVYLDGHLITTVQGDGVIVSTPTGSTAYAAAAGASMIHPNVPAIMITPICPHSLSFRPIVVPAGVELKIMLSPEARNTAWVSFDGRKRQEIRHGDSISITTSCYPLPSICVRDPVSDWFESLAQCLHWNVRKKQAHFEEEEEEEEEG | 4 |  |
| human NADK2 mature protein (amino acids 47 to 442) (enzyme, UniProt Q4G0N4 47-442, looked up) LGQGQPRELAGCGSRADGGFRPSRVVVVAKTTRYEFEQQRYRYAELSEEDLKQLLALKGSSYSGLLERHHIHTKNVEHIIDSLRNEGIEVRLVKRREYDEETVRWADAVIAAGGDGTMLLAASKVLDRLKPVIGVNTDPERSEGHLCLPVRYTHSFPEALQKFYRGEFRWLWRQRIRLYLEGTGINPVPVDLHEQQLSLNQHNRALNIERAHDERSEASGPQLLPVRALNEVFIGESLSSRASYYEISVDDGPWEKQKSSGLNLCTGTGSKAWSFNINRVATQAVEDVLNIAKRQGNLSLPLNRELVEKVTNEYNESLLYSPEEPKILFSIREPIANRVFSSSRQRCFSSKVCVRSRCWDACMVVDGGTSFEFNDGAIASMMINKEDELRTVLLEQ | 2 | 2.2 |
